Results from patent US20090226437A1 (Genentech, published 2009).
Changes are numbered by the printed parent chain.

B1: Rat Fib504 (antibody FIB504.64 produced by hybridoma ATCC HB-293) (antibody, V domains shown)
VH: EVQLQESGPGLVKPSQSLSLTCSVTGFFITNNYWGWIRKFPGNKMEWMGYISYSGSTSYNPSLKSRISITRDTSKNQFFLQLNSVTTEDTATYYCAMTGSSGYFDFWGPGTMVTVSS
VL: DVVMTQSPATLSVTPGERISLSCRASESVDTYLHWYQQKPNESPRLLIKYASQSISGIPSRFSGSGSGTDFTLSINGVELEDLSIYYCQQGNSLPNTFGAGTKLELKR
notes: Whole rat antibody in the cell adhesion assays; also called rat anti-mouse beta7 antibody
B2: Variant hu504.5, IgG (antibody, name in Kabat numbering, V domains shown)
VH: EVQLVESGGGLVQPGGSLRLSCAASGFFITNNYWGWVRQAPGKGLEWVGYISYSGSTSYNPSLKSRFTISRDTSKNTFYLQMNSLRAEDTAVYYCAMTGSSGYFDFWGQGTLVTVSS
VL: DIQMTQSPSSLSASVGDRVTITCRASESVDSLLHWYQQKPGKAPKLLIKYASQSISGVPSRFSGSGSGTDFTLTISSLQPEDFATYYCQQGNSLPNTFGQGTKVEIKR
B3: Variant hu504.16, IgG (antibody, name in Kabat numbering, V domains shown)
VH: B2 VH
VL: B2 VL with S31T
B4: Variant hu504.32, IgG (antibody, V domains shown)
VH: B2 VH
VL: B2 VL with S31D
notes: methionine at heavy chain position 94; also called hu504.32M; 504.32M

target: T1, human alpha4beta7 receptor on RPMI8866 cells (human, UniProt P13612 34-1032; P26010 20-798); assay: cell adhesion inhibition, RPMI8866 cells on coated 7dVCAM-1, Exp 1
T1 construct: whole, on cells; also called alpha4beta7 on RPMI8866
Procedure: (§1) RPMI8866/MAdCAM-1-Ig Cell Adhesion: RPMI8866 cells express alpha4beta7 on their surface (Roswell Park Memorial Institute, Buffalo, N.Y.). Humanized Fib504 variants (hu504 variants) were contacted with a mixture of RMPI8866 cells and MAdCAM fused to IgG coated on a solid support. […] After blocking the plates with 200 ul/well of 5 mg/ml BSA for one hour at room temperature, 50 μl of humanized Fib504 variants in assay media (RPMI 1640 media, Hyclone®, Logan Utah, USA, supplemented with 5 mg/mL BSA) were added to each well and 150,000 BCECF-labeled cells (BCECF, Molecular Probes, Eugene, Oreg.) in 50 μl of assay media were added to each well and incubated for 15 minutes at 37° C. The wells were washed two times with 150 μl of assay media to remove unbound cells. The bound cells were solubilized with 100 μl of 0.1% SDS in 50 mM Tris/HCl pH7.5. The amount of fluorescence released from lysed cells was measured by SPECTRAmax GEMINI™ (Molecular Devices, Sunnyvale, Calif.) at 485 nm excitation 530 nm emission wavelengths. The fluorescence values were analyzed as a function of the concentrations of the humanized Fib504 variants added in each assay, using a four-parameter nonlinear least squares fit, to obtain the IC₅₀ values of each humanized Fib504 variant in the assay. IC₅₀ and IC₉₀ values were estimated from the four-parameter fit. FIG. 14 is an exemplary plot of the results. The IC₉₀ and IC₅₀ values for each of the variants tested are shown below in Table 4.
(§2) RPMI8866/7dVCAM-1 Cell Adhesion: The RPMI8866/7dVCAM-1 assay is similar format to the RPMI8866/MAdCAM-1-Ig except that 7dVCAM-1 (ADP5, R&D Systems, Minneapolis, Minn.) was used at 2 ug/ml to coat plates. The results were analyzed as described above for the MAdCAM binding experiments. The IC₅₀ values for each of the variants tested are shown below in Table 5.

T1 sequence (P13612 34-1032, chain 1 of 2): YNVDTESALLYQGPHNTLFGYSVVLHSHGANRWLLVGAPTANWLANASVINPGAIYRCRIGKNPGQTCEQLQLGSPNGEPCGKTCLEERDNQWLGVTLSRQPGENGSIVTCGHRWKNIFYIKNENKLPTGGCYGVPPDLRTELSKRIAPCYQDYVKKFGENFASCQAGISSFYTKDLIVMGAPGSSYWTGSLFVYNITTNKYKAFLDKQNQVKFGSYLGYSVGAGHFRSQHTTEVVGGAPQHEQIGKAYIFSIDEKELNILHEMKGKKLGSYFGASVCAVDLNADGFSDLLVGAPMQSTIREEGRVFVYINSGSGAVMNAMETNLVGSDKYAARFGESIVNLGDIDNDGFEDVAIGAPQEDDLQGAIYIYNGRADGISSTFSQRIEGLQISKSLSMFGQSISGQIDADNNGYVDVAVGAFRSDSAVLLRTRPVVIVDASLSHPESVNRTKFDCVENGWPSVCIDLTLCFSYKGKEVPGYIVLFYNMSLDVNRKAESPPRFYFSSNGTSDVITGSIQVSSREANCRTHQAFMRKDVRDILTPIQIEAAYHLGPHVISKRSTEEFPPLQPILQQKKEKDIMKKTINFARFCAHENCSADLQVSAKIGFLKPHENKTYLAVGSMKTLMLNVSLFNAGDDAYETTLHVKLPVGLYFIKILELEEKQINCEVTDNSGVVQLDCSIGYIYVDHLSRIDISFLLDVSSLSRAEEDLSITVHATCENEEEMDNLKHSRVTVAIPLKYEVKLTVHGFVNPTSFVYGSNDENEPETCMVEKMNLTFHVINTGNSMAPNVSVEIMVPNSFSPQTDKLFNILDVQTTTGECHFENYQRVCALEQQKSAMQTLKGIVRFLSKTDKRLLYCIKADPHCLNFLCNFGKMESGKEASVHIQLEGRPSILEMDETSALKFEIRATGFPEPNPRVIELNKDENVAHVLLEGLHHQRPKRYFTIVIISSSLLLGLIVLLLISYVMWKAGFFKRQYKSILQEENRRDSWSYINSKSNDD
T1 sequence (P26010 20-798, chain 2 of 2): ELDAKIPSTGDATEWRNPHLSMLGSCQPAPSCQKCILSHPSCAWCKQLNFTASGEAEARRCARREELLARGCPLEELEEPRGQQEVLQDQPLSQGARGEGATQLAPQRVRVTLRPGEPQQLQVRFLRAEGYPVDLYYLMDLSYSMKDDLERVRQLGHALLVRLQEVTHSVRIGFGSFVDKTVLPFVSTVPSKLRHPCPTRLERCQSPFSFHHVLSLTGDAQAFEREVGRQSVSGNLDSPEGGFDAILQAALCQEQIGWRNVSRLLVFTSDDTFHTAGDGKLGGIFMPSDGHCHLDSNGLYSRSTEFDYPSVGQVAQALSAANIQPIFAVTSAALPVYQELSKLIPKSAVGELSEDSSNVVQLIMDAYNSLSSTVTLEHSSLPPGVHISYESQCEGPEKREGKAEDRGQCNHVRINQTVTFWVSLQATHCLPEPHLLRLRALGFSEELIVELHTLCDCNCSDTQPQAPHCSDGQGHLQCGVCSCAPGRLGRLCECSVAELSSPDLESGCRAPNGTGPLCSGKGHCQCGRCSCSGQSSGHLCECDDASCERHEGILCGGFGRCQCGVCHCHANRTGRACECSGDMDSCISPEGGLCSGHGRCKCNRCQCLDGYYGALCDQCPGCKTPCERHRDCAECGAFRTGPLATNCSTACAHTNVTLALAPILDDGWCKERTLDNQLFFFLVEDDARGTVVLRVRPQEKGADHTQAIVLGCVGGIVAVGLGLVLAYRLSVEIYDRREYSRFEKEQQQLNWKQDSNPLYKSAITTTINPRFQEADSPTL

Binder	IC50	IC90
B1	0.107 nM	0.396 nM
B2	0.088 nM	0.396 nM
B3	0.098 nM	0.261 nM

target: T1, human alpha4beta7 receptor on RPMI8866 …; assay: cell adhesion inhibition, RPMI8866 cells on coated 7dVCAM-1, Exp 2
Procedure: as §1, §2

Binder	IC50	IC90
B1	0.193 nM	0.58 nM
B2	0.27 nM	0.726 nM
B3	0.223 nM	0.774 nM

target: T1, human alpha4beta7 receptor on RPMI8866 …; assay: cell adhesion inhibition, RPMI8866 cells on coated MAdCAM-1-Ig, Exp 1
Procedure: as §1

Binder	IC50	IC90
B1	0.098 nM	0.483 nM
B2	0.067 nM	0.361 nM
B3	0.0768 nM	0.244 nM

target: T1, human alpha4beta7 receptor on RPMI8866 …; assay: cell adhesion inhibition, RPMI8866 cells on coated MAdCAM-1-Ig, Exp 2
Procedure: as §1

Binder	IC50	IC90
B1	0.197 nM	0.703 nM
B2	0.248 nM	0.88 nM
B3	0.206 nM	0.551 nM

target: T2, alpha4beta7 on 38C13 alpha4+ murine lymphoma cells transfected with integrin beta7 (38C13beta7 cells) (murine, UniProt Q00651 41-1039; P26011 20-806); assay: cell adhesion inhibition, 38C13beta7 cells on coated muVCAM-1-Ig, experiment 1 of 2
T2 construct: whole, on cells; also called 38C13-beta7 expressing cells; murine beta7-containing receptor
Procedure: as §1
(§3) 38C13beta7/muVCAM-1-Ig Cell Adhesion Assay: The 38C13beta7/muVCAM-1-Ig assay was performed according to the murine MAdCAM-1-Ig/RPMI8866 cell binding assay above, except that muVCAM-1-Ig (Genentech, Inc.) was used at 2 μg/ml to coat plates. (IC₅₀ and IC₉₀ values for 2 experiments are shown).

T2 sequence (Q00651 41-1039, chain 1 of 2): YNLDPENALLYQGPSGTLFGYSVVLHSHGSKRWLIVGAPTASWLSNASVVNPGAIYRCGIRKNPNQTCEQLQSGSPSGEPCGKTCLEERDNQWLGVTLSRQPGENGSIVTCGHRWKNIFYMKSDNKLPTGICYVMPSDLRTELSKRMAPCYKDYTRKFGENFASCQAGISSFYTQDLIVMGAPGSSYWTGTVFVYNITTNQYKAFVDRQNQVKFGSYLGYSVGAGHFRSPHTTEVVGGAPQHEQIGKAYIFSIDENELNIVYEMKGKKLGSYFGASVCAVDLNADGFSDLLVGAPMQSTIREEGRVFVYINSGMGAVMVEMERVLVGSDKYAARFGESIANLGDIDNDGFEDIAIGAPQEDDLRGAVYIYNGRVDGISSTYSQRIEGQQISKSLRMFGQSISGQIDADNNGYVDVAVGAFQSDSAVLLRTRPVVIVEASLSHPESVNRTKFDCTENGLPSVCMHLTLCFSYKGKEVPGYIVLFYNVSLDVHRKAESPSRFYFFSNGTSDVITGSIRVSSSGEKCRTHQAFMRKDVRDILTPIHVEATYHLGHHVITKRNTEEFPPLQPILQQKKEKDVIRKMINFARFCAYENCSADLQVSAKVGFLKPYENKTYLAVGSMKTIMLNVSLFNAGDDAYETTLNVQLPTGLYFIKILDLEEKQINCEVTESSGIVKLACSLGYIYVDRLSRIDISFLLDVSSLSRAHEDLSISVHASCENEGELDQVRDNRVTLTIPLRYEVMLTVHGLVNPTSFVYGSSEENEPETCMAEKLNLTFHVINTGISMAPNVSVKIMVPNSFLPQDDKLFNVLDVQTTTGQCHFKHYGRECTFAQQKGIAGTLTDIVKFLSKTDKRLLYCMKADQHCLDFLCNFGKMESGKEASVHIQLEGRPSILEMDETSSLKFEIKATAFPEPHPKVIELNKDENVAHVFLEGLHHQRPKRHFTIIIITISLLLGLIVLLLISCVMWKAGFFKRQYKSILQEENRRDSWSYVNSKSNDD
T2 sequence (P26011 20-806, chain 2 of 2): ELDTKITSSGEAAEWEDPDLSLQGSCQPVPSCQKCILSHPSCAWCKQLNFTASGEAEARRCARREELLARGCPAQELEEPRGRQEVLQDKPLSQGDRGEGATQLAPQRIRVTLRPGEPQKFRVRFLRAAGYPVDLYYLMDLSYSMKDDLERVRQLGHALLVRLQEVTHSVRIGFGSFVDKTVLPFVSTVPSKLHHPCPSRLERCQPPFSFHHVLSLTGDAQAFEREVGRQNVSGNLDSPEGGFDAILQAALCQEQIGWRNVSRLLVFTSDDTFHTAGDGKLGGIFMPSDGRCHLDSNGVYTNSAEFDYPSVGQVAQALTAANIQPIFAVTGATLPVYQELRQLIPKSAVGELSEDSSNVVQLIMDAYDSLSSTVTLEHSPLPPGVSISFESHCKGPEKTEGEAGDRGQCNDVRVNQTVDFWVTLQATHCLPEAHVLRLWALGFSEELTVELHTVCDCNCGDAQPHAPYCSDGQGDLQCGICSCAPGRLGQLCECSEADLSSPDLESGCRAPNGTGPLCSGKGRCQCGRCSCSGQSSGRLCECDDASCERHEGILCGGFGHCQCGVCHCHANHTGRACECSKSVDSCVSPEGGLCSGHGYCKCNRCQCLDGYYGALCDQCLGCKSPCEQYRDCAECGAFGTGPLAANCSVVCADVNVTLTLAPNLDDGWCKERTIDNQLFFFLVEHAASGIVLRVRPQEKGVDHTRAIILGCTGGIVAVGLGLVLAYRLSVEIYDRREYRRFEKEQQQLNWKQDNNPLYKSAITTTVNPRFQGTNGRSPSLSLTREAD

Binder	IC50	IC90
B1	0.845 nM	2.9 nM
B4	0.562 nM	2 nM
B2	0.763 nM	3.07 nM
B3	0.835 nM	2.86 nM

target: T2, alpha4beta7 on 38C13 alpha4+ murine …; assay: cell adhesion inhibition, 38C13beta7 cells on coated muVCAM-1-Ig, experiment 2 of 2
Procedure: as §1, §3

Binder	IC50	IC90
B1	0.447 nM	2.3 nM
B4	0.33 nM	1.84 nM
B2	0.407 nM	2.3 nM
B3	0.584 nM	1.84 nM

target: T2, alpha4beta7 on 38C13 alpha4+ murine …; assay: cell adhesion inhibition, 38C13beta7 cells on coated muMAdCAM-1-Ig, experiment 1 of 2
Procedure: as §1
(§4) 38C13beta7/muMAdCAM-1-Ig Cell Adhesion Assay: The 38C13beta7/muMAdCAM-1-Ig assay was similar format to the RPMI8866/MAdCAM-1-Ig except that muMAdCAM-1-Ig (Genentech, Inc.) was used at 2 μg/ml to coat plates. 38C13 alpha4+ murine lymphoma cells (Crowe, D. T. et al., J. Biol. Chem. 269:14411-14418 (1994)) were transfected with DNA encoding integrin beta7 such that alpha4beta7 was expressed on the cell surface. The ability of the antibodies variants to disrupt interaction between the cell membrane associated alpha4beta7 and MAdCAM was performed as above.

Binder	IC50	IC90
B1	0.682 nM	2.87 nM
B4	0.718 nM	4.08 nM
B2	0.859 nM	2.32 nM
B3	0.998 nM	3.72 nM

target: T2, alpha4beta7 on 38C13 alpha4+ murine …; assay: cell adhesion inhibition, 38C13beta7 cells on coated muMAdCAM-1-Ig, experiment 2 of 2
Procedure: as §1, §4

Binder	IC50	IC90
B1	0.306 nM	1.51 nM
B4	0.458 nM	1.51 nM
B2	0.466 nM	2.61 nM
B3	0.61 nM	4.08 nM

target: T3, alphaEbeta7 on alphaEbeta7-transfected 293 cells (human, UniProt P38570 19-1179; P26010 20-798); assay: cell adhesion inhibition, alphaEbeta7 293 cells on coated huE-Cadherin, experiment 1 of 3
T3 construct: whole, on cells; also called alphaEbeta7 293 cells
Procedure: (§5) After blocking the plates with 200 ul/well of 5 mg/ml BSA for one hour at room temperature, 50 μl of humanized Fib504 variants in assay media (RPMI 1640 media, Hyclone®, Logan Utah, USA, supplemented with 5 mg/mL BSA) were added to each well and 150,000 BCECF-labeled cells (BCECF, Molecular Probes, Eugene, Oreg.) in 50 μl of assay media were added to each well and incubated for 15 minutes at 37° C. The wells were washed two times with 150 μl of assay media to remove unbound cells. The bound cells were solubilized with 100 μl of 0.1% SDS in 50 mM Tris/HCl pH7.5. The amount of fluorescence released from lysed cells was measured by SPECTRAmax GEMINI™ (Molecular Devices, Sunnyvale, Calif.) at 485 nm excitation 530 nm emission wavelengths. The fluorescence values were analyzed as a function of the concentrations of the humanized Fib504 variants added in each assay, using a four-parameter nonlinear least squares fit, to obtain the IC₅₀ values of each humanized Fib504 variant in the assay. IC₅₀ and IC₉₀ values were estimated from the four-parameter fit. FIG. 14 is an exemplary plot of the results. The IC₉₀ and IC₅₀ values for each of the variants tested are shown below in Table 4.
(§6) The assay format is similar to the RPMI8866/MAdCAM-1-Ig assay except that the huE-Cadherin (648-EC, R&D Systems, Minneapolis, Minn.) was used at 2 μg/ml to coat the plates. Plates were then blocked with 5 mg/ml BSA as mentioned above and 50 μl of FIB504 variants in assay media (F-12:DMEM (50:50) supplemented with 5 mg/ml BSA) were add to each well and 110,000 BCECF labeled cells in 50 ul of assay media were added to each well and incubated for 15 minutes at 37° C. The wells were washed two times with 150 μl of assay media and the amount of fluorescence released by lysed cells was measured and analyzed as described above.

T3 sequence (P38570 19-1179, chain 1 of 2): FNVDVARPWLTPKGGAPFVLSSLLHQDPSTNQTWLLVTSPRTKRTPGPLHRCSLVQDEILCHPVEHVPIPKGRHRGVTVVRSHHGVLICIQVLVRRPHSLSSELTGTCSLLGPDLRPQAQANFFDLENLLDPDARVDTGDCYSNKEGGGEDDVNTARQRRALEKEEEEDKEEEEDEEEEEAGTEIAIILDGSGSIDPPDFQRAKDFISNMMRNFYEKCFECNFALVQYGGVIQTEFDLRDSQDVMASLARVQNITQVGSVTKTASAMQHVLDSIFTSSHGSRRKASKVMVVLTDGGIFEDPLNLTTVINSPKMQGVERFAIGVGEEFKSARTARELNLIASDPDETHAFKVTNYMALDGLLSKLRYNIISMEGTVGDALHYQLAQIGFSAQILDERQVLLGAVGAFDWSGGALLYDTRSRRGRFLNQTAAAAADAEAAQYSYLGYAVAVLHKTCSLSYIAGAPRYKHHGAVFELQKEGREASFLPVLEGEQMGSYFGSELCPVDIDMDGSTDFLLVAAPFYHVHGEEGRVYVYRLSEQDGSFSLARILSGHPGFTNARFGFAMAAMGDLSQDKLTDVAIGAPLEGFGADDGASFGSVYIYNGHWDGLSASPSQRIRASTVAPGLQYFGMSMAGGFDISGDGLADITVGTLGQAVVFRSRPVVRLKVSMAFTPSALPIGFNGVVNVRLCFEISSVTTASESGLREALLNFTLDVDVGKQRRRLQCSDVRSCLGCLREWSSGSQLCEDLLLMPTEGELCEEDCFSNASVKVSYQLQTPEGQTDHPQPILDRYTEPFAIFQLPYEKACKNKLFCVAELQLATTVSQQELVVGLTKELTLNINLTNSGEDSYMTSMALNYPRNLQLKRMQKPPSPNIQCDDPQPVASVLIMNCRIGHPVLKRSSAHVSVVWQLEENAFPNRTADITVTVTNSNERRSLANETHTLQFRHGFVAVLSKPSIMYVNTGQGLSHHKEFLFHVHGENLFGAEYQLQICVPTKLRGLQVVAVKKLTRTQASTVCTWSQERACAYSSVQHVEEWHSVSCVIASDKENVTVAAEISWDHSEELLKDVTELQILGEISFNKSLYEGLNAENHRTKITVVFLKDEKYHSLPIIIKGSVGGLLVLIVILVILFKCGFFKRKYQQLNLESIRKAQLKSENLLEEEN
T3 sequence (P26010 20-798, chain 2 of 2): as the sequence (P26010 20-798, chain 2 of 2) above

Binder	IC50	IC90
B1	2.05 nM	8.8 nM
B4	1.81 nM	8.8 nM
B2	2.13 nM	7.99 nM
B3	1.96 nM	7.03 nM

target: T3, alphaEbeta7 on alphaEbeta7-transfected …; assay: cell adhesion inhibition, alphaEbeta7 293 cells on coated huE-Cadherin, experiment 2 of 3
Procedure: as §5, §6

Binder	IC50	IC90
B1	7.89 nM	24.5 nM
B4	6.99 nM	24.5 nM
B2	10.2 nM	28.7 nM
B3	10.1 nM	33.7 nM

target: T3, alphaEbeta7 on alphaEbeta7-transfected …; assay: cell adhesion inhibition, alphaEbeta7 293 cells on coated huE-Cadherin, experiment 3 of 3
Procedure: as §5, §6

Binder	IC50	IC90
B1	4.19 nM	9.95 nM
B4	3.47 nM	11.7 nM
B2	4.77 nM	10.2 nM
B3	4.58 nM	13.5 nM
